The results in this text go back to a protein production outcome set (Wang et al. 2014).

A short description of this data set: label from the status in PepcDB records.
On to “MIGSTSDGLVPGNTDMPATPTTALTALRTPHPPTGGESMHPRTRTAPALLFAVCLTALAAYPAAADDPVPTTERVSVTLDGAQIDDPSYRPQLTSKGGVVYTSDGPVWSTDHNGVSDAYRNSERVSYNMGAARSYDPSACHTARMIAFVSDRTPAGGTTPSVYVRNTPVGKLSYASHGYQGVPFTWAGQPAMSADCQWMAFSATLPATPDHVEQPRVYRYRIYDGTIEQVSPDSADGSRAAVRPSISADGRYVAYQSSIPHPGGPANDSDIYVRDLETGTLEKASVGRHGRPADRASTGPSLSADGRHVAFDSYASNLAPGDTNGTVNVFVRDLDAGTTRLVKGAGRHAYTAEAALSGDGLHLAYVSAGIRGSRGVPAVYLRDLATGRTRLISVDTRGHRNDRAAGNPSVNPDGTAVAFDSASPDLVPGDTNGTVDVFLRRLGSPEALEHHHHHH”, for which the protein production result is “not failed”.
The entry for “MVRMQTKAVMVFKLDEEGNAFYTQDIGDLYIFISRSEPFCVPASSFPGMFSNFVELLDVNENVTVDLSDYSMNGGFGYFGAPAHIPPQKLD” is “failed”; for “GMNSGKVAFIVTKNGKRICDVIDECSQRGSTILKAQGGYKQDDIQVVMCACNSKEMYQVRKSVKDTDPDSFIVVVESHEVHGEGFKMTNIGEAEN” it is “failed”; for “MRKDTEEVQKSSGKTRKSYVKVKKKRRKSTKQKGPEPKKLDFVKDSWQKGSLEIKKLDFIGDRWQTVSLEPKMLGFVEDPWRKGSLEPKMLDFVEDPWQKGSLEPKMLDIVEDSWQKDSFEAMKLDFAEYNWISIDNRRVSADSKRSSVDSKRSSVDSKRSSVDSKRGSIDSRKFSVDSKRDPVDNKRDSVDSKRFSVDSKRFSVDSRRVSISSKRSSIDSKRSSVDSRKSSGGTLLDFSEDRRSSGEDRDISSLARVRHSRVPWATLMRALGRFKLYLPHIRRYYNLSSRDPLALDKDFLLPREKHLKATVQKSWGNQQPLSKIPYKTLTGHDQTVSSCHFCMDDTRLLSSSYDCTVKLWDAEDGTVICDFEPRPKAPVLECSITADNRRIVASSYDKTVRAWDVETGQLLWKVRHDTFVVCCKFSPNGKYVLSALDVNRGIYLMDPENITSVIHMKAQHQRSITSCCFDPDSQKVASVSMDKSIKIWDVTSRATLFTIQEAHTNAISDCCFTFSGHFLCTSSWDRTIKIWNVHTGEFRNQGACVTLMKGHEGCVSSCCIARDSSFLISGGFDKTVAIWDVGGGYRKLSLKGHEDWVTDVAISNDKKWILSASKDNSMRLWNIEEIDKIPLVSENKRAMGLKVRQCRNCDQLFSVLESDVYSQLSNTCLFCRREKKSLSSSSSSLSLSSLERLCI” it is “failed”.
Consider “MRAHGRRVSKRQPDSPGRLRGAFGSRLHLSPLTRLPARPIWRPRAGCAVPLAGPGCDPAGFMLKSPSFPFSAPAMLRHLPMTYCAIDFGTSNSAVALPDGDGMRLAPVEGDHLTLPTAIFFNNDEQTVEYGRAALASYIDGFDGRLMRSMKSILGSPLAETTTDLGDGSAMAYTEIIARFLTHLKRKAEARAGAPIGRAVLGRPVFFVDEDPRADRLAQDQLEAAARSVGFTDVHFQYEPIAAAFDYESRQQAERLVLVADIGGGTSDFSLVRVGPERMARLERKDDVLAHHGVHVAGTDYDRRVELAAILPAFGYRALDPEGRELPNRIYFDLATWHLINTVYTPKRLGELKLMKHLYQDGRQHDRLMSVVEQRLGHALMARAEEAKIGVAAGGETMIDLNDVEEDLQIAFDAERLVEASVDDTARIVDAARETVRLAGVAPRDLGALYFTGGSTGLAFLSGALAGAFPDAQPVFGDRLASVATGLGIHAQRLFG”, for which the protein production result is on record as “failed”.
Under “MKRENIKTILLTVLVVISLVFTWGIWTFQPNFSEGSSSTESTVRVKHKIEKTTQKLSETVRPRDMFIHDDGAHYKVDDNALYEEIWSDLPHWDVKGIKDISDQYDKAGFKSWFYGIGGSEAKLDLQFSDTIPIDIFQTLFKWSNQSFEYSSFDHILIPFNETKANKKIYLVSYSKQLILEVTVESANYRNIMNDLKNRQSNMPAFSLFSIGSKKEFLLPNKPLTMDKKEFVTESIKTNTFKQALFSDPSIVREDSNYNNRNVLTDGISRLDVNLSQRQVQFQQRNLVQSTSYQTGELIKKSQKYLEDTGSWTDHYQFFNINDSQQLSFYIFMDQIPVINSTAKPFGATSAITVQWANDDILSYKRPNYSLGTNPIKTSETELMGGSEVKMLLSKQTAYDTDKIDQIFLAYQLVSTSTNDDPLVELEPVWAMKVNGKIVPITKDLLRKEGANSGVE” stands “failed”; under “MDEVLKEILSSYQKRALKLTKRVRKKIFKNDPTENQKKAIKIALNTPDIAIIQGPPGTGKTTVINAICERLFEEYPKDKNIKGQILLCAQGHDATNNARERIKVGGLPTFKFGAKKNAKEEQYKQDERLNERLREFAETLIESVRKKLQKLGDYENIEKILDLEEALRRYYSSPISELEFLKEIEKNESFF”, “failed”.
As for “MANDIDRAGVAKAYARWAPIYDLVFGKVFDSGRQSTIAVADAIGGRVLDVGVGTGLSLSDYSKTTRLCGVDISEPMLRKAHERVRTLNLSNVDVLAVMDAKNLAFPANYFDAVVAQYVITAVPDPEATLDDFIRVLKPGGELILVNHIGAESGPRKLFELAFSPIARRLGWRPEFPWQRLVNWAARHRGVELAERRPMPPMGHFSLIRYRKLLEHHHHHH”, the protein production result is “failed”.
For the sequence “SATHGQTCARPMCIPPSYADLGKAARDIFNKGFGFGLVKLDVKTKSCSGVEFSTSGSSNTDTGKVTGTLETKYKWCEYGLTFTEKWNTDNTLGTEIAIEDQICQGLKLTFDTTFSPNTGKKSGKIKSSYKRECINLGCDVDFDFAGPAIHGSAVFGYEGWLAGYQMTFDSAKSKLTRNNFAVGYRTGDFQLHTNVNDGTEFGGSIYQKVCEDLDTSVNLAWTSGTNCTRFGIAAKYQLDPTASISAKVNNSSLIGVGYTQTLRPGVKLTLSALVDGKSINAGGHKVGLALELEA”, the protein production entry is listed as “not failed”.
As to “MSLKFENTGLENQTVELSRLDDIMERLGFVRAAQWDYERVTYDRKYVVKEGTYYLRVQGYAIEGNVDSRYALIKLLTPIMGKHYYPHGVEYGDDEHFPSSLVSQCQNVLAQVKSELEKIKEEGHHHHHH”, the protein production entry is on record as “not failed”.
For the sequence “MANQTVERQSWSNRLAYIMTVAGATVGFGATWRFPYLVGENGGGAYVFLFCIAMIVIGIPMILVENVIGRRMKVNAIDAFSGQANGKKIASGWKILGYMGLLGAFGILSYYMVLGGWVLNYIGSLISGNLDLSSPITVETTTAYYQNSIQNSPITILCYAALFVLINFFILTKGIVDGIERSVKYLMPILFIFLLVMVVRNVTLPGATDGISFYLMPDFSKITPKLFVFVLGQVFFALSLGFGVLITLSSYLDKNENLIKTATITGIMNTFIAVLAGFMIFPSLFSFGVAPNSGPTLVFQSLPIVFSNMWGGTIFAIIFFSLLIVAALTTSLTIYEVIITALQEKTKISRKTAIGITLSSTFLIGNIPSVLGDNIWKDVTIMGKSIFDVFDYISGNILFILTALGSAIFVGYVLKDEAKAELGANKTLTTIWFNYVRFVIPIIIIVIFFNSL”, the protein production entry was “failed”.
“MSRNPEVLWAQRSDKVYLTVALPDAKDISVKCEPQGLFSFSALGAQGERFEFSLELYGKIMTEYRKNVGLRNIIFSIQKEERSWWTRLLKSEEKPAPYIKVDWNKWCDEDEEVNSETASDDESAFVNQDSESSDDDGLLYLPDLEKARNK”: the protein production result is on record as “not failed”.
Under “MLVVYIALMICTMTPVLALQAGADMSVLVWLVFGLVIVKAVLLVDHFMEMKHAPWGWRMAAQGWAVVVVSVLAGIHLAG” stands “failed”; under “AKVVFYEKPGCVGNARQKALLTASGHELEVRNLLAEPWTRETLRPFFGDKPLIEWFNQSSPKVKAGAIDFAALGVEAALALMIEDPLLIRRPLMQSGDRREVGFDQATVHAWLG”, “failed”.
The entry for “MSSYSNELLMLIFRSMLCKQVLIFFAYSGLYYLVTYFMDKKIQHQKQFLLKLGLVKLKKRNKTRWEKIRWRMQLCLIVSILVLVVSTFVLNPDDQYILLVIYVMKLATFTSFAIAFVDSLGPIKEIQQLIVGAQSSDTLDSDKKVLTVTIFKKIRWMLILYQVLKVPALIIILTLSVDY” is “failed”.
Under “MIEKVYCQEVKPELDGKKVRLAGWVYTNMRVGKKIFLWIRDSTGIVQAVVAKNVVGEETFEKAKKLGRESSVIVEGIVKADERAPGGAEVHVEKLEVIQAVSEFPIPENPEQASPELLLDYRHLHIRTPKASAIMKVKETLIMAAREWLLKDGWHEVFPPILVTGAVEGGATLFKLKYFDKYAYLSQSAQLYLEAAIFGLEKVWSLTPSFRAEKSRTRRHLTEFWHLELEAAWMDLWDIMKVEEELVSYMVQRTLELRKKEIEMFRDDLTTLKNTEPPFPRISYDEAIDILQSKGVNVEWGDDLGADEERVLTEEFDRPFFVYGYPKHIKAFYMKEDPNDPRKVLASDMLAPEGYGEIIGGSQREDDYDKLLNRILEEGMDPKDYEWYLDLRRYGSVPHSGFGLGVERLVAWVLKLDHIRWAALFPRTPARLYP” stands “not failed”.
For the sequence “MPKNDLLLRSLRGEPIGRFPVWLMRQAGRYMPEYRKIRNRVKNFLELCKNVDLATEISLLPLKILGVDAIIIFSDILVPLEPLGVKVEFVEGEGPKLSWSGKVSDLKKYDPSQNAYVYEIIKRVKEAQDEVPVIGFAGAPFTLLSYLIEGGASKDFKSTKLFMWENPKEYKRLMDILTETVLAYLKEQIKAGADVVQIFDSWVNNLSLEDYGEYVYPYVNYLISELKDFSDTPVIYFFRGSSSFIDLAVDYRADALSVDWSVDIPELFKIYDKGFQGNLEPAVLYASEEVIEEKTLGLLRRIPVKTRYVFNLGHGLAPDMELEKVKYLVDLVKSFPLT”, the protein production entry is recorded as “not failed”.
Under “MSIKILSESEIKQVANSYQAPAVLFANPKNLYQRRAKRLRDLAQNHPLSDYLLFAADIVESQLSTLEKNPLPPQQLEQLNTIEPLNAKTFKRNSIWREYLTEILDEIKPKANEQIAATIEFLEKASSAELEEMANKLLAQEFNLVSSDKAVFIWAALSLYWLQAAQQIPHNSQVENAENLHHCPVCGSLPVASMVQIGTSQGLRYLHCNLCESEWNLVRAQCTNCNSHDKLEMWSLNEELALVRAETCGSCESYLKMMFQEKDPYVEPVADDLASIFLDIEMEEKGFARSGLNPFIFPAEEA” stands “failed”; under “MNKKTIGFFSGIAVFAIIYFLPIAGLSAKGQMDLALSLMTVVWWATQIAQPAFVGGIYLMLLIIMNVATPSQVFSSAWTGSIMWLVIGAYLIAGAVNESGLGQRIAYAFIIKFVRSWKGIVISIFALTFILALLIPHPWPRAFMIMSVITVVAETAKMPKRDLAKLGLAVFAASCPLSGVFYTGDTSLNPLAVQASGQSVNFVSYFIYMGVPMIIAAILTMFLFLFLFKPSQEVHIDVEALKQQQAQLGGMTGKEVRTIIWLIIAIALWLTSGITGLDVGWLTLIVALMMSLPVVGGILTAKSWEGVPVNVLVFLTSAIAIGNVGGVTGMNNWIAKTLIPSNLPTNIYLLAIVITVFAMIIHMFMGSVIAVMGITIPAFVAATAHMGISPLAVSLLVFSVTNLHYILPFHNLAVLVGSDPDTGGGYTQKDVMRLGIPLTAVVFVVALVEMFWFHLVGLA”, “failed”.
